molecular target: HLA-A*02:01 (Homo sapiens, UniProt P04439, D140Y/D185E/D98H/E176V/E277Q/G131W/G231S/I119V/I121R/I166T/I218V/L300P/L318F/N151K/N90K/P208A/P217A/Q86G/Q94H/R138H/R169H/T345S); experiment: MHC binding assay (UV-ligand exchange, ELISA of exchange yield); conditions: binding to HLA-A*02:01, UV-ligand exchange
Description: Candidate peptides for T cell based therapies according to the present invention were further tested for their MHC binding capacity (affinity). The individual peptide-MHC complexes were produced by UV-ligand exchange, where a UV-sensitive peptide is cleaved upon UV-irradiation, and exchanged with the peptide of interest as analyzed. Only peptide candidates that can effectively bind and stabilize the peptide-receptive MHC molecules prevent dissociation of the MHC complexes. To determine the yield of the exchange reaction, an ELISA was performed based on the detection of the light chain (p2m) of stabilized MHC complexes. The assay was performed as generally described in Rodenko et al. (Rodenko et al., 2006).
96 well MAXISorp plates (NUNC) were coated over night with 2 μg/ml streptavidin in PBS at room temperature, washed 4× and blocked for 1 h at 37° C. in 2% BSA containing blocking buffer. […] Peptide-MHC monomers of the UV-exchange reaction were diluted 100 fold in blocking buffer. Samples were incubated for 1h at 37° C., washed four times, incubated with 2 μg/ml HRP conjugated anti-β2m for 1h at 37° C., washed again and detected with TMB solution that is stopped with […]. Absorption was measured at 450 nm. Candidate peptides that show a high exchange yield (preferably higher than 50%, most preferred higher than 75%) are generally preferred for a generation and production of antibodies or fragments thereof, and/or T cell receptors or fragments thereof, as they show sufficient avidity to the MHC molecules and prevent dissociation of the MHC complexes.

Row | Substance | Peptide exchange (MHC class I binding score, peptide exchange yield)
1 | 95 (SVIPQIQKV; listed as Homo sapiens) [compound 95] | “+++” (≥50 = +++)
2 | 96 (YIFTDNPAAV; listed as Homo sapiens) [compound 96] | “+++” (≥50 = +++)
3 | 97 (SLINGSFLV; listed as Homo sapiens) [compound 97] | “+++” (≥50 = +++)
4 | 98 (LIIDQADIYL; listed as Homo sapiens) [compound 98] | “+++” (≥50 = +++)
5 | 99 (ALVSKGLATV; listed as Homo sapiens) [compound 99] | “++” (≥20% = ++)
6 | 100 (YLLSTNAQL; listed as Homo sapiens) [compound 100] | “++++” (≥75% = ++++)
7 | 101 (ILVGGGALATV; listed as Homo sapiens) [compound 101] | “+++” (≥50 = +++)
8 | 102 (YLFESEGLVL; listed as Homo sapiens) [compound 102] | “+++” (≥50 = +++)
9 | 103 (TLAEEVVAL; listed as Homo sapiens) [compound 103] | “+++” (≥50 = +++)
10 | 104 (STMEQNFLL; listed as Homo sapiens) [compound 104] | “++++” (≥75% = ++++)
11 | 106 (LLYDAVHIVSV; listed as Homo sapiens) [compound 106] | “+++” (≥50 = +++)
12 | 107 (FLQPVDDTQHL; listed as Homo sapiens) [compound 107] | “+++” (≥50 = +++)
13 | 108 (ALFPGVALLLA; listed as Homo sapiens) [compound 108] | “++++” (≥75% = ++++)
14 | 109 (IILSILEQA; listed as Homo sapiens) [compound 109] | “++++” (≥75% = ++++)
15 | 110 (FLSQVDFEL; listed as Homo sapiens) [compound 110] | “+++” (≥50 = +++)

More lines, now with the values ahead:

Row | Peptide exchange (MHC class I binding score, peptide exchange yield) | Substance
16 | “+++” (≥50 = +++) | 111 (YVWGFYPAEV; listed as Homo sapiens) [compound 111]
17 | “+++” (≥50 = +++) | 113 (GLLPTPLFGV; listed as Homo sapiens) [compound 113]
18 | “++” (≥20% = ++) | 114 (SLVGEPILQNV; listed as Homo sapiens) [compound 114]
19 | “++” (≥20% = ++) | 115 (AIAGAGILYGV; listed as Homo sapiens) [compound 115]
20 | “+” (≥10% = +) | 116 (YHIDEEVGF; listed as Homo sapiens) [compound 116]
21 | “+++” (≥50 = +++) | 117 (ILPDGEDFLAV; listed as Homo sapiens) [compound 117]
22 | “+++” (≥50 = +++) | 118 (KLIDNNINV; listed as Homo sapiens) [compound 118]
23 | “++++” (≥75% = ++++) | 119 (FLYIGDIVSL; listed as Homo sapiens) [compound 119]
24 | “+++” (≥50 = +++) | 120 (ALLGIPLTLV; listed as Homo sapiens) [compound 120]
25 | “++” (≥20% = ++) | 121 (GVVDPRAISVL; listed as Homo sapiens) [compound 121]
26 | “+++” (≥50 = +++) | 122 (FLLAEDDIYL; listed as Homo sapiens) [compound 122]
27 | “+++” (≥50 = +++) | 123 (NLWDLTDASVV; listed as Homo sapiens) [compound 123]
